In publication PMC4703518:

T1: Unkempt ZnF1-3 (mouse, UniProt Q8BL48 31-174)
T1 sequence: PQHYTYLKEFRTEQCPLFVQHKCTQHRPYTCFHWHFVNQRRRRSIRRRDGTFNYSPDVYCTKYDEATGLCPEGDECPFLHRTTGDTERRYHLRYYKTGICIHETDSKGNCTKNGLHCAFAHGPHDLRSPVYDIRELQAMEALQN

T2: Unkempt ZnF4-6 (mouse, UniProt Q8BL48 204-335)
T2 sequence: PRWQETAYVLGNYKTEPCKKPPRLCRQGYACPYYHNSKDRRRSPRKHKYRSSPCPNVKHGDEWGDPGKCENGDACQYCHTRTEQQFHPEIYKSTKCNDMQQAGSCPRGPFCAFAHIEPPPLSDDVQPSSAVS

T3: Unkempt ZnF1-6 WT (mouse, UniProt Q8BL48 31-335)
T3 sequence: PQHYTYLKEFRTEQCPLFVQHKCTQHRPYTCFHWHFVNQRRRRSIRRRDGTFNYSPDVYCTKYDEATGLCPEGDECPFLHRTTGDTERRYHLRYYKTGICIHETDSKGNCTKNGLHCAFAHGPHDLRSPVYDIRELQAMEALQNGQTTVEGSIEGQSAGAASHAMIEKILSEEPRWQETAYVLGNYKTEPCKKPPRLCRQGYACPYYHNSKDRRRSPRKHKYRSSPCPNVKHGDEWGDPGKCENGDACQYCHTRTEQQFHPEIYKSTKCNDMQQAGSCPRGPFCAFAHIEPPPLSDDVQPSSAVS


Legend:
[1] = target: T1, Unkempt ZnF1-3; assay: ITC
[2] = target: T2, Unkempt ZnF4-6; assay: ITC
[3] = target: T3, Unkempt ZnF1-6 WT; assay: EMSA

| Binder | binding result [1] | binding result [2] | binding result [3] |
| --- | --- | --- | --- |
| ACUCCCAAUUAUUAAUGA (ssRNA) [HSPA8 URE 18-mer UAG-mutated] | binds | – | – |
| ACUUAGAAUUAUUAAUGA (ssRNA) [HSPA8 URE 18-mer WT] | – | binds | binds |
